Assay results: publication PMC10955495

Assays:
[1] = target: Cluc‐PtoWAK106 (Populus tomentosa); test: split reporter (BiFC, NanoBiT); luciferase complementation imaging (LCI): firefly luciferase complementation (Nluc / Cluc fusions) in young N. benthamiana leaves; three biological replicates
[2] = target: Cluc‐PtoE2Fa (Populus tomentosa); test: as above
[3] = target: Cluc‐PtoE2Fa (Populus tomentosa); test: split reporter (BiFC, NanoBiT); LCI of Cluc-PtoE2Fa with PtoDPb1^Hap1/Hap2-Nluc in young N. benthamiana leaves with co-expressed PtoWAK106-GFP (compared with GFP)

Row | luciferase activity, percent higher than with PtoDPb1^Hap2 [1] [%] | luciferase activity, percent stronger than with PtoDPb1^Hap2 [2] [%] | fold increase in luciferase activity with PtoWAK106-GFP against GFP [3] [fold] | luciferase intensity with PtoWAK106-GFP, percent higher than with PtoDPb1^Hap2 [3] [%] | Substance
1 | 37 | 85.8 | 3.61 | 47.3 | PtoDPb1^Hap1‐Nluc (natural protein)
2 |  |  | 3.8 |  | PtoDPb1^Hap2‐Nluc (natural protein)
